{"source": "patent CN114349851A", "about": "(SHANGHAI NAI BIOTECHNOLOGY CO LTD, dated 2022)", "binders": {"B1": {"name": "纳米抗体C5D2 (VHH)", "VHH": "DVQLVESGGGSVQAGGSLRLSCAASGEYSQLRFLGWFRQAPGKEREGVAAGLGANEDGYYADSVKGRFTVSLDNAENTVYLQMNSLKPEDTALYYCAALVIFSHDGPEFLAQNYWGQGTQVTVSS"}, "B2": {"name": "纳米抗体C5G2 (VHH)", "VHH": "DVQLVESGGGSVQAGGSLRLSCAASGKFSHLVFLGWFRQAPGKEREGVAAGLGAYESGYYADSVKGRFTVSLDNAENTVYLQMNSLKPEDTALYYCAALVVLSRDNTEFIAHNYWGQGTQVTVSS"}}, "key": {"[1]": {"biological_target": "T1, RBD-Fc (RBD与Fc的融合蛋白), 野生型RBD (SARS-CoV-2, UniProt P0DTC2 319-541)", "experiment": "competitive ELISA, nanobody titrated against RBD binding to coated ACE2"}, "[2]": {"biological_target": "T1, RBD-Fc (RBD与Fc的融合蛋白), 野生型RBD", "experiment": "BLI (Octet RED96), His-tagged nanobody on Ni-NTA sensor, RBD-Fc as analyte"}, "[3]": {"biological_target": "T1, RBD-Fc (RBD与Fc的融合蛋白), 野生型RBD", "experiment": "BLI, compared with C5"}}, "data": [{"binder": "B1", "values": [{"measurement": "IC50", "setting": "[1]", "result": 28, "unit": "nM"}, {"measurement": "Kd", "setting": "[2]", "result": "< 0.001", "unit": "nM"}]}, {"binder": "B2", "values": [{"measurement": "fold increase in affinity over C5", "setting": "[3]", "result": 11, "unit": "fold"}, {"measurement": "IC50", "setting": "[1]", "result": 88, "unit": "nM"}, {"measurement": "Kd", "setting": "[2]", "result": 1.62, "unit": "nM"}]}]}
